From the supplement of paper PMC9112550, “Optimization of the antimicrobial peptide Bac7 by deep mutational scanning” (BMC Biology, 2022)

System: Escherichia coli TOP10
Assay: shrunken log2 fold change of peptide-encoding DNA abundance (4.5 h post-induction vs induction); higher = less antimicrobial activity (less host growth inhibition)
Details: time post-induction: 4.5 h; library: site-saturation at positions 5, 18, 19, 20
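Also: peptides expressed intracellularly from a pBAD plasmid library in pooled LB shake-flask culture, induced with 0.3% L-arabinose, DNA abundance read by NGS, three biological replicates, DESeq2 with apeglm shrinkage.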

| Sequence | shrunken log2 fold change |
| --- | --- |
| RRIRIRPPRLPRPRPRPGEQPRP | -0.0156 |
| RRIRHRPPRLPRPRPRPPGPPRP | 0.196 |
| RRIRARPPRLPRPRPRPDTVPRP | -0.125 |
| RRIRTRPPRLPRPRPRPCLWPRP | -0.0838 |
| RRIRHRPPRLPRPRPRPCSMPRP | -0.0569 |
| RRIRQRPPRLPRPRPRPDVYPRP | 0.0517 |
| RRIRFRPPRLPRPRPRPRHRPRP | 0.195 |
| RRIRCRPPRLPRPRPRPVCMPRP | -0.119 |
| RRIRVRPPRLPRPRPRPRLDPRP | 0.238 |
| RRIRMRPPRLPRPRPRPNGDPRP | 0.297 |
| RRIRARPPRLPRPRPRPTYCPRP | -0.119 |
| RRIRGRPPRLPRPRPRPQFPPRP | -0.0214 |
| RRIRRRPPRLPRPRPRPCYDPRP | -0.194 |
| RRIRNRPPRLPRPRPRPPARPRP | 0.746 |
| RRIRPRPPRLPRPRPRPPIDPRP | 0.216 |
| RRIRARPPRLPRPRPRPYAKPRP | 0.249 |
| RRIRQRPPRLPRPRPRPFLKPRP | -0.939 |
| RRIRRRPPRLPRPRPRPTFSPRP | 0.185 |
| RRIRHRPPRLPRPRPRPIWKPRP | -0.0276 |
| RRIRCRPPRLPRPRPRPSMDPRP | -0.182 |
| RRIRHRPPRLPRPRPRPGFIPRP | 0.043 |
| RRIRIRPPRLPRPRPRPGWGPRP | 0.308 |
| RRIRYRPPRLPRPRPRPASIPRP | -0.229 |
| RRIRIRPPRLPRPRPRPIWRPRP | 0.529 |
| RRIRWRPPRLPRPRPRPCYVPRP | -0.127 |

| Sequence | shrunken log2 fold change |
| --- | --- |
| RRIRWRPPRLPRPRPRPCHAPRP | -0.253 |
| RRIRVRPPRLPRPRPRPYQCPRP | -0.185 |
| RRIRCRPPRLPRPRPRPWLGPRP | 0.188 |
| RRIRWRPPRLPRPRPRPKKYPRP | -0.245 |
| RRIRQRPPRLPRPRPRPVICPRP | -0.0945 |
| RRIRVRPPRLPRPRPRPRIIPRP | -0.0581 |
| RRIRHRPPRLPRPRPRPSQLPRP | -0.00148 |
| RRIRTRPPRLPRPRPRPCLMPRP | -0.15 |
| RRIRLRPPRLPRPRPRPGCIPRP | -0.346 |
| RRIRTRPPRLPRPRPRPMGHPRP | -0.118 |
| RRIRKRPPRLPRPRPRPHLVPRP | 0.0297 |
| RRIRTRPPRLPRPRPRPQQCPRP | -0.0115 |
| RRIRTRPPRLPRPRPRPEFRPRP | -0.0543 |
| RRIRNRPPRLPRPRPRPCWSPRP | 0.0596 |
| RRIRFRPPRLPRPRPRPGLRPRP | 0.23 |
| RRIRFRPPRLPRPRPRPRTRPRP | 0.244 |
| RRIRQRPPRLPRPRPRPICFPRP | -0.0372 |
| RRIRSRPPRLPRPRPRPFDSPRP | -0.0702 |
| RRIRTRPPRLPRPRPRPIRVPRP | -0.519 |
| RRIRGRPPRLPRPRPRPIQVPRP | 0.118 |
| RRIRSRPPRLPRPRPRPPFAPRP | 1.88 |
| RRIRTRPPRLPRPRPRPVLFPRP | -0.193 |
| RRIRNRPPRLPRPRPRPFFKPRP | 0.0559 |
| RRIRERPPRLPRPRPRPWGWPRP | 0.173 |
| RRIRKRPPRLPRPRPRPGCKPRP | 0.189 |

| Sequence | shrunken log2 fold change |
| --- | --- |
| RRIRGRPPRLPRPRPRPKPVPRP | 0.985 |
| RRIRGRPPRLPRPRPRPSEGPRP | 0.356 |
| RRIRARPPRLPRPRPRPVHYPRP | -0.198 |
| RRIRERPPRLPRPRPRPMWMPRP | -0.0314 |
| RRIRIRPPRLPRPRPRPNPCPRP | -0.159 |
| RRIRVRPPRLPRPRPRPSKMPRP | -0.243 |
| RRIRNRPPRLPRPRPRPQARPRP | -0.0332 |
| RRIRMRPPRLPRPRPRPNLAPRP | 0.337 |
| RRIRPRPPRLPRPRPRPWSQPRP | 0.0452 |
| RRIRCRPPRLPRPRPRPPFSPRP | 0.236 |
| RRIRHRPPRLPRPRPRPKNVPRP | -0.0354 |
| RRIRVRPPRLPRPRPRPCTSPRP | -0.145 |
| RRIRIRPPRLPRPRPRPWFIPRP | -0.243 |
| RRIRLRPPRLPRPRPRPKEKPRP | -0.0145 |
| RRIRRRPPRLPRPRPRPNVQPRP | 0.0253 |
| RRIRWRPPRLPRPRPRPNTNPRP | -0.294 |
| RRIRARPPRLPRPRPRPLCCPRP | 0.305 |
| RRIRQRPPRLPRPRPRPIHGPRP | -0.0264 |
| RRIRCRPPRLPRPRPRPNESPRP | -0.00497 |
| RRIRPRPPRLPRPRPRPRNRPRP | 0.516 |
| RRIRWRPPRLPRPRPRPVIEPRP | 0.0398 |
| RRIRKRPPRLPRPRPRPLGVPRP | 0.438 |
| RRIRYRPPRLPRPRPRPWRPPRP | -0.0287 |
| RRIRNRPPRLPRPRPRPSMHPRP | -0.805 |
| RRIRERPPRLPRPRPRPELTPRP | 0.534 |

| Sequence | shrunken log2 fold change |
| --- | --- |
| RRIRMRPPRLPRPRPRPNKMPRP | -0.134 |
| RRIRMRPPRLPRPRPRPNPPPRP | 0.311 |
| RRIRVRPPRLPRPRPRPPDNPRP | -0.00642 |
| RRIRFRPPRLPRPRPRPELPPRP | -0.0615 |
| RRIRARPPRLPRPRPRPRMYPRP | 0.0922 |
| RRIRARPPRLPRPRPRPIITPRP | -0.298 |
| RRIRGRPPRLPRPRPRPGMCPRP | 0.489 |
| RRIRCRPPRLPRPRPRPNFYPRP | -0.228 |
| RRIRIRPPRLPRPRPRPHDYPRP | -0.262 |
| RRIRKRPPRLPRPRPRPDGGPRP | 0.157 |
| RRIRARPPRLPRPRPRPGCQPRP | 0.168 |
| RRIRLRPPRLPRPRPRPMHQPRP | 0.136 |
| RRIRHRPPRLPRPRPRPETAPRP | 0.346 |
| RRIRERPPRLPRPRPRPSKIPRP | -0.506 |
| RRIRSRPPRLPRPRPRPHITPRP | -0.734 |
| RRIRSRPPRLPRPRPRPQYSPRP | -0.165 |
| RRIRWRPPRLPRPRPRPKHWPRP | 0.4 |
| RRIRTRPPRLPRPRPRPYIFPRP | -0.947 |
| RRIRDRPPRLPRPRPRPDGYPRP | -0.0204 |
| RRIRMRPPRLPRPRPRPVDGPRP | 1.08 |
| RRIRNRPPRLPRPRPRPAVQPRP | 0.109 |
| RRIRRRPPRLPRPRPRPMHQPRP | -0.105 |
| RRIRCRPPRLPRPRPRPNIVPRP | -0.34 |
| RRIRTRPPRLPRPRPRPVESPRP | 0.141 |
| RRIRRRPPRLPRPRPRPKKQPRP | -0.0969 |

| Sequence | shrunken log2 fold change |
| --- | --- |
| RRIRDRPPRLPRPRPRPYHMPRP | -0.00968 |
| RRIRSRPPRLPRPRPRPETVPRP | 0.211 |
| RRIRFRPPRLPRPRPRPNMTPRP | -0.43 |
| RRIRFRPPRLPRPRPRPLGRPRP | 0.109 |
| RRIRQRPPRLPRPRPRPIDDPRP | -0.112 |
| RRIRLRPPRLPRPRPRPPCMPRP | -0.0839 |
| RRIRARPPRLPRPRPRPQVKPRP | 0.136 |
| RRIRPRPPRLPRPRPRPQKIPRP | -0.267 |
| RRIRARPPRLPRPRPRPALGPRP | 0.73 |
| RRIRWRPPRLPRPRPRPEQDPRP | -0.0232 |
| RRIRNRPPRLPRPRPRPRKRPRP | -0.0369 |
| RRIRWRPPRLPRPRPRPELLPRP | 0.485 |
| RRIRHRPPRLPRPRPRPVQEPRP | -0.0785 |
| RRIRVRPPRLPRPRPRPKHLPRP | 0.0232 |
| RRIRVRPPRLPRPRPRPYMTPRP | -0.566 |
| RRIRCRPPRLPRPRPRPNPKPRP | 0.055 |
| RRIRSRPPRLPRPRPRPCGQPRP | 0.088 |
| RRIRIRPPRLPRPRPRPTCEPRP | -0.132 |
| RRIRSRPPRLPRPRPRPDAVPRP | 0.32 |
| RRIRMRPPRLPRPRPRPMKKPRP | -0.00637 |
| RRIRDRPPRLPRPRPRPTRLPRP | 0.491 |
| RRIRWRPPRLPRPRPRPYQEPRP | -0.0609 |
| RRIRSRPPRLPRPRPRPSLGPRP | 0.319 |
| RRIRTRPPRLPRPRPRPTCEPRP | 0.125 |
| RRIRIRPPRLPRPRPRPGRQPRP | 0.172 |
